A word on the IC50: it is the point on the concentration scale where inhibition reaches its midpoint. A low value points to greater potency in that assay.

We go through nine substances from patent publication US20200024330A1.

Holding throughout (experiment): cell-based or functional assay
For assay [1], the target named is HIV-1 92RW020 envelope glycoprotein (Env) (HIV-1).
In assay [2] the target is HIV-1 98CN009 envelope glycoprotein (Env) on pseudovirus (HIV-1).
The target in assay [3] is HIV-1 Env of pseudovirus 92BR020, clade B (HIV-1).
Assay [4] concerns the target HIV-1 MGRM-C-023 Env (HIV-1).
The target of assay [5] is HIV-1 MGRM-A-013 envelope glycoprotein (Env) (HIV-1).
The target in assay [6] is HIV-1 Env of pseudovirus SC422661.8 (Acute), clade B (HIV-1).
Assay [7] concerns the target HIV-1 92UG031 envelope glycoprotein (Env) (HIV-1).
Assay [8] has as its target HIV-1 MGRM-C-024 Env (HIV-1).
Assay [9] concerns the target HIV-1 MGRM-F1-021 Env (pseudovirus) (HIV-1).
Assay [10] concerns the target HIV-1 93IN905 envelope protein (Env) on pseudovirus (HIV-1).
For assay [11], the target named is HIV-1 Env of isolate MGRM-D-022 (clade D) (HIV-1).
The target in assay [12] is HIV-1 Env of isolate MGRM-G-028 (clade G pseudovirus) (HIV-1).
Assay [13] addresses HIV-1 Env of isolate MGRM-D-014 (clade D) (HIV-1).
Assay [14] has as its target HIV-1 JR-CSF envelope protein (Env) on pseudovirus (HIV-1) (UniProt P20871).
Assay [15] has as its target HIV-1 JRCSF envelope glycoprotein (Env) on pseudovirus (HIV-1).
Assay [16] concerns the target HIV-1 Env of isolate MGRM-D-001 (HIV-1).
Assay [17] addresses HIV-1 JR-CSF Env V120A (HIV-1 (isolate JR-CSF)) (UniProt P20871).
Assay [18] concerns the target HIV-1 Env of isolate MGRM-Chronic-B-008 (HIV-1).
The target in assay [19] is HIV-1 Env of isolate MGRM-D-018 (HIV-1).
For assay [20], the target named is HIV-1 Env of isolate APV-6 (pseudovirus) (HIV-1 isolate APV-6, subtype B).
Assay [21] addresses HIV-1 Env of isolate MGRM-F1-016 (subtype F), on pseudovirus (HIV-1).
The target of assay [22] is HIV-1 Env of isolate MGRM-D-013 (HIV-1).
Assay [23] concerns the target HIV-1 Env of isolate MGRM-C-008 (HIV-1).
In assay [24] the target is HIV-1 Env of isolate 92UG046 (HIV-1).
The target of assay [25] is HIV-1 Env of isolate 98CN006 (HIV-1).
Assay [26] has as its target HIV-1 JR-CSF Env D113A (HIV-1 (isolate JR-CSF)) (UniProt P20871).
In assay [27] the target is HIV-1 Env of isolate MG RM-A-006 (HIV-1).
Assay [28] addresses HIV-1 JR-CSF Env R166A (HIV-1 (isolate JR-CSF)) (UniProt P20871).
Assay [29] addresses HIV-1 Env of isolate MGRM-C-024 (HIV-1).
In assay [30] the target is HIV-1 Env of isolate MGRM-Chronic-B-004 (HIV-1).
Assay [31] deals with HIV-1 Env of isolate MGRM-C-023 (pseudovirus) (HIV-1 isolate MGRM-C-023, subtype C).
Assay [32] concerns the target HIV-1 MGRM-Chronic-B-008 Env (pseudovirus) (HIV-1).
The target in assay [33] is HIV-1 Env of isolate 98CN006 (subtype CRF08 BC) (HIV-1).
Assay [34] deals with HIV-1 TRO.11 Env (pseudovirus) (HIV-1).
In assay [35] the target is HIV-1 Env of isolate MG RM-D-003 (subtype D) (HIV-1).
Assay [36] addresses HIV-1 TRJ04551.58 Env (pseudovirus) (HIV-1).
Assay [37] concerns the target HIV-1 Env of isolate 92UG114 (subtype D) (HIV-1).
The target of assay [38] is HIV-1 93IN905 Env (pseudovirus) (HIV-1).
For assay [39], the target named is HIV-1 Env of isolate 97ZA012 (pseudovirus) (HIV-1 isolate 97ZA012, subtype C).
For assay [40], the target named is HIV-1 MGRM-Chronic-B-024 Env (pseudovirus) (HIV-1).
Assay [41] deals with HIV-1 Env of isolate MG RM-D-012 (subtype D) (HIV-1).
The target of assay [42] is HIV-1 APV_17 Env (pseudovirus) (HIV-1).
For assay [43], the target named is HIV-1 Env of isolate MG RM-D-024 (subtype D) (HIV-1).
Assay [44] deals with HIV-1 APV_13 Env (pseudovirus) (HIV-1).

Sequence of 5345_I01 (PGT-137) (antibody) (VH): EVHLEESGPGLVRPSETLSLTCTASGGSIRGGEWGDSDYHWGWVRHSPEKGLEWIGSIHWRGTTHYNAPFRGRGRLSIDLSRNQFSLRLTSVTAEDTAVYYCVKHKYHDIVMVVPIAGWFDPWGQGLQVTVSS
Sequence of 5345_I01 (PGT-137) (antibody) (VL): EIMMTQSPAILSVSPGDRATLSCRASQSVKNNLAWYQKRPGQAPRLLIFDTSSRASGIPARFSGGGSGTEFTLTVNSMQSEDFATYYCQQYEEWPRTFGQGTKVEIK
Sequence of 5329_C19 (PGT-136) (antibody) (VH): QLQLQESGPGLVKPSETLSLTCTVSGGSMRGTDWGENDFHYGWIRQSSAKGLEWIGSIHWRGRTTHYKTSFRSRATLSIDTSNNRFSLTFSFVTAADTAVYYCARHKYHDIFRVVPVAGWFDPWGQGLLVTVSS
Sequence of 5329_C19 (PGT-136) (antibody) (VL): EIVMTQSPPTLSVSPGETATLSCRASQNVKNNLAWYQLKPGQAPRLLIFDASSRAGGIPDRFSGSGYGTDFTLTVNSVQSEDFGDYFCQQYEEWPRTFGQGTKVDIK

Take 2F5 (antibody): the IC50 (µg/ml), pseudovirus neutralization in [1] is 3.36 µg/mL; in [2], greater than 50 µg/mL; in assay [3], greater than 50 µg/mL; in assay [5] it was 0.66 µg/mL; in assay [6], greater than 50 µg/mL; in [7] it was 3.81 µg/mL. The IC50 (µg/ml), pseudovirus neutralization is 1.37 µg/mL in assay [9], 8.45 µg/mL in assay [11], 2.24 µg/mL in assay [12] and 2.22 µg/mL in [13]. For the same substance, the half-maximal inhibitory concentration (IC50) in [4] and in assay [8] was greater than 50 µg/mL each time. The neutralization IC50 in [10] is greater than 50 µg/mL; in assay [14], 3.36 µg/mL. The substance also returned an IC90 (pseudovirus neutralization) in [15] of 25.3 µg/mL.

As to 1495_C14 (PGC14) (antibody), the IC50 (µg/ml), pseudovirus neutralization in [1] is 46 µg/mL; in assay [2], 43 µg/mL; in assay [3], 4 µg/mL; in [5], greater than 50 µg/mL; in [6], greater than 50 µg/mL; in assay [7] it was greater than 50 µg/mL. Besides, the IC50 (µg/ml), pseudovirus neutralization in assay [9] is 46 µg/mL; in [11], greater than 50 µg/mL; in assay [12], greater than 50 µg/mL; in [13] it was 48 µg/mL. Besides, the IC50 in [4] and in assay [8] was greater than 50 µg/mL each time. Moreover, the neutralization IC50 in assay [10] and in assay [14] was greater than 50 µg/mL each time.

On to 5114_A19 (PGT-128) (antibody), for which the IC50 in assay [16] is 0.138 µg/mL; in [18] it was 0.143 µg/mL; in assay [19], 0.008 µg/mL; in assay [22] it was 8.85 µg/mL; in [23], 0.373 µg/mL; in assay [24] it was greater than 50 µg/mL. The figures for the IC50 in assay [25], in [29] and in assay [30] were 0.015 µg/mL, greater than 50 µg/mL and 0.009 µg/mL, respectively. Besides, the Fold IC50 increase relative to wild-type was determined as 1.4 fold in assay [17], 0.5 fold in assay [26] and 2.7 fold in assay [28]. This substance also yielded an IC50 (µg/mL) neutralization in assay [20] of 0.007 µg/mL. Besides, the IC50, pseudovirus neutralization in [21] worked out at 1.21 µg/mL. Further, the neutralization IC50 in assay [27] was greater than 50 µg/mL.

Regarding 5136_H01 (PGT-131) (antibody), the 50% inhibitory concentration (IC50) in [16] was greater than 50 µg/mL; in assay [18] it was greater than 50 µg/mL; in assay [19], 0.148 µg/mL; in assay [22] it was 4.14 µg/mL; in assay [23], greater than 50 µg/mL; in assay [24], greater than 50 µg/mL. Also, the concentration for half-maximal inhibition (IC50) was 35.3 µg/mL in assay [25], greater than 50 µg/mL in assay [29] and 0.04 µg/mL in [30]. Besides, the Fold IC50 increase relative to wild-type in [17] came out at 0.7 fold; in assay [28], 1.6 fold. The substance further displayed an IC50 (µg/mL) neutralization in assay [20] greater than 50 µg/mL. For the same substance, in assay [21], the IC50, pseudovirus neutralization was greater than 50 µg/mL. In addition, the neutralization IC50 in assay [27] was greater than 50 µg/mL.

Consider 5145_B14 (PGT-127) (antibody), for which the Fold IC50 increase relative to wild-type in assay [17] came to 1.5 fold; in [26], 0.3 fold; in assay [28] it was 1.6 fold. Also, the values for the IC50 (µg/mL) neutralization in assay [31] and in [39] were 1.08 µg/mL and greater than 50 µg/mL, respectively. The IC50, pseudovirus neutralization was 21.5 µg/mL in [32]; 0.079 µg/mL in assay [34]; 0.063 µg/mL in assay [36]; 0.024 µg/mL in assay [38]; greater than 50 µg/mL in [40]; 10.4 µg/mL in assay [42]. Moreover, the IC50, pseudovirus neutralization in assay [44] worked out at 0.026 µg/mL. The IC50 (µg/mL), pseudovirus neutralization in assay [33] was 0.067 µg/mL; in assay [35], 0.029 µg/mL; in [37], 7.09 µg/mL; in assay [41], greater than 50 µg/mL; in assay [43] it was 1.95 µg/mL.

Consider 5147_N06 (PGT-130) (antibody), for which the concentration for half-maximal inhibition (IC50) in assay [16] is greater than 50 µg/mL; in [18] it was 5.18 µg/mL; in assay [19], 0.049 µg/mL; in [22], 0.429 µg/mL; in [23], 7.28 µg/mL; in [24], greater than 50 µg/mL. Besides, the half-inhibitory concentration (IC50) in assay [25] is 0.258 µg/mL; in assay [29] it was greater than 50 µg/mL; in [30] it was 0.01 µg/mL. Besides, the results for the Fold IC50 increase relative to wild-type in [17], in assay [26] and in [28] were 0.8 fold, 0.8 fold and 1.2 fold, respectively. Moreover, the IC50 (µg/mL) neutralization in assay [20] is greater than 50 µg/mL. Moreover, the IC50, pseudovirus neutralization in assay [21] is greater than 50 µg/mL. The substance further registered a neutralization IC50 in assay [27] greater than 50 µg/mL.

For 5329_C19 (PGT-136) (antibody), the IC50 in assay [16], in assay [18], in [19], in assay [22], in assay [23] and in [24] was greater than 50 µg/mL each time. Further, the IC50 in assay [25] is 0.406 µg/mL; in assay [29], greater than 50 µg/mL; in assay [30], greater than 50 µg/mL. In addition, the IC50 (µg/mL) neutralization in assay [20] is greater than 50 µg/mL. Further, the IC50, pseudovirus neutralization in assay [21] was greater than 50 µg/mL. The same substance displayed a neutralization IC50 in assay [27] greater than 50 µg/mL.

Regarding 5343_B08 (PGT-135) (antibody), the IC50 in [16] is greater than 50 µg/mL; in [18], greater than 50 µg/mL; in assay [19] it was 0.039 µg/mL; in assay [22], greater than 50 µg/mL; in assay [23], greater than 50 µg/mL; in assay [24], greater than 50 µg/mL. For the same substance, the IC50 in assay [25] was 0.429 µg/mL; in [29] it was greater than 50 µg/mL; in [30], greater than 50 µg/mL. For the same substance, the Fold IC50 increase relative to wild-type amounted to 1.4 fold in assay [17], 0.8 fold in [26] and 0.9 fold in [28]. In assay [20], this substance gave an IC50 (µg/mL) neutralization greater than 50 µg/mL. This substance returned an IC50, pseudovirus neutralization in [21] greater than 50 µg/mL. In [27], this substance came in with a neutralization IC50 greater than 50 µg/mL.

In the case of 5345_I01 (PGT-137) (antibody), the IC50 is greater than 50 µg/mL in assay [16]; greater than 50 µg/mL in assay [18]; 15.1 µg/mL in [19]; greater than 50 µg/mL in assay [22]; greater than 50 µg/mL in assay [23]; greater than 50 µg/mL in [24]. For the same substance, the IC50 was 1.22 µg/mL in assay [25], greater than 50 µg/mL in [29] and greater than 50 µg/mL in [30]. Moreover, in assay [20], the IC50 (µg/mL) neutralization is greater than 50 µg/mL. The substance also registered an IC50, pseudovirus neutralization in [21] greater than 50 µg/mL. In addition, the neutralization IC50 in assay [27] was greater than 50 µg/mL.
